The RNAGym collection of RNA variant scans (doi:10.7554/elife.80360)

B1: Twister Ribozyme (parent)
chain: AACACUGCCAAUGCCGGUCCCAAGCCCGGAUAAAAGUGGAGGGGGCGG

Variants of: B1
Test: self-cleavage, relative activity (ratio to wild type); higher = more cleavage; co-transcriptional

Point of comparison: C25A U31A, self-cleavage 0.0924. Against it:
- C25G A32C — higher, 0.261
- C25G A32G — higher, 0.216
- C26A U31A — higher, 0.638
- C26A U31C — higher, 0.7
- C26G A32U — higher, 0.193
- C25G U37A — higher, 0.166
- C25G U37G — higher, 0.104
- C25A G28U — higher, 0.146
- C25A G28C — higher, 0.146
- C25A G48A — higher, 0.106
- C25A G48U — lower, 0.0867
- C25G A40G — higher, 0.129
- C25G A40U — higher, 0.103
- C25G A40C — higher, 0.0986
- C25A C26U — higher, 0.0948
- C25A C26A — higher, 0.0988
- C25A A40U — lower, 0.0741
- C26A G38A — higher, 0.143
- C26A G38U — higher, 0.221
- C26G C46U — higher, 0.361
- C25U G44C — higher, 0.692
- C25G G41A — higher, 0.146
- G24U U37A — lower, 0.0892
- C25A A34C — lower, 0.0515
- C25G G47A — higher, 0.153
- C25G G47U — higher, 0.155
- C25G G47C — higher, 0.142
- C25G G45U — higher, 0.145
- C25G G45A — higher, 0.132
- C25G G45C — higher, 0.143
- C26A G42A — higher, 0.132
- C26A G42C — higher, 0.131
- C25U G47U — higher, 0.573
- C26A U37C — higher, 0.105
- C26A G28C — higher, 0.48
- C26A G28U — higher, 0.114
- C25A A33G — lower, 0.079
- C25A A33U — lower, 0.0752
- C25U A33U — higher, 0.822
- C25U A33G — higher, 0.853
- C25U G45C — higher, 0.247
- C25U U31C — higher, 0.61
- C25U G41C — higher, 0.147
- C26A G45A — higher, 0.258
- C26A G45U — higher, 0.136
- C26G G42A — higher, 0.103
- C25G A35G — lower, 0.0857
- C25G A35C — higher, 0.182
- C26G C27A — higher, 0.107
- C26G C27G — higher, 0.106
- C26A G29U — higher, 0.214
- C26A G29C — higher, 0.122
- C26A G29A — higher, 0.267
- C26A — higher, 0.706
- C26G — higher, 0.449
- C26G A33C — higher, 0.129
- C25U U37A — higher, 0.392
- C25U U37C — higher, 0.133
- C25A A30U — lower, 0.0882
- C25A G41U — lower, 0.0916
- C26G G38C — higher, 0.202
- G24U G48C — higher, 0.127
- C25A G47A — higher, 0.102
- C25G G36U — higher, 0.103
- C25G A33G — higher, 0.148
- C25U G43U — higher, 0.182
- C26G G36A — lower, 0.0913
- C26G G36U — lower, 0.0699
- C26G A40G — higher, 0.127
- C25A C27U — higher, 0.136
- C25A C27G — higher, 0.104
- G24U U31G — higher, 0.13
- G24U U31C — higher, 0.13
- C25U A40U — higher, 0.0985
- C25U A40C — higher, 0.109
- C26G G41U — lower, 0.0825
- C26G G41C — higher, 0.0955
- C26A C46G — higher, 0.358
- C26A C46U — higher, 0.624
- C25G U31A — higher, 0.482
- C25G U31C — higher, 0.404
- C26G G28C — higher, 0.142
- C26G G28U — higher, 0.0926
- C25U C46A — higher, 0.686
- C25U C46U — higher, 0.75
- C25U C46G — higher, 0.762
- C25U G28A — higher, 0.713
- C25G C26A — higher, 0.0961
- C26A G47A — higher, 0.142
- C26A G47C — higher, 0.2
- C25G G43A — higher, 0.122
- C25G G43C — higher, 0.124
- C25A G45U — higher, 0.0929
- C25G G39A — higher, 0.101
- C26A A33C — higher, 0.359
- C26A A33G — higher, 0.257
- C25A U37C — higher, 0.0999
- C26G A35G — higher, 0.16
- C26G A35C — higher, 0.319
- C26A C27U — lower, 0.0741
- C26A C27G — higher, 0.0974
- C26A A32C — higher, 0.575
- C26A A32U — higher, 0.405
- C26A G43U — higher, 0.11
- C26A G43A — higher, 0.124
- C26A G43C — higher, 0.111
- C25G G29U — higher, 0.651
- C25G G29C — higher, 0.109
- C25A — higher, 0.144
- C25G — higher, 0.458
- C25U — higher, 0.881
- C25G G44A — higher, 0.514
- C26A A30U — higher, 0.542
- C26A A30C — lower, 0.0881
- C25G G42A — higher, 0.118
- C25G G42C — higher, 0.18
- C25U G39C — higher, 0.117
- C25U G39U — higher, 0.158
- C26A G44C — higher, 0.212
- C25G G28C — higher, 0.0925
- C26G A30G — higher, 0.214
- C25G A34U — higher, 0.158
- C25G A34C — higher, 0.115
- C25U G36C — higher, 0.15
- C25U G36U — higher, 0.123
- C25U G48A — higher, 0.559
- C25U G48C — higher, 0.881
- C25U A34G — higher, 0.487
- C25U A34C — lower, 0.0649
- C25U G38C — higher, 0.847
- C25U G38U — higher, 0.614
- C25U G29A — higher, 0.734
- C25U G29C — higher, 0.635
- C25U G29U — higher, 0.824
- C25G G38U — higher, 0.131
- C25G G38A — lower, 0.0823
- C25G C27A — higher, 0.105
- C25A G43C — lower, 0.0876
- C25A G43U — higher, 0.0941
- C25A G43A — lower, 0.0661
- C25U A30G — higher, 0.911
- C25U A30U — higher, 0.932
- C25A A32C — higher, 0.0985
- C26A A40G — higher, 0.182
- C26A G39A — higher, 0.107
- C26A G39U — higher, 0.116
- C25G A30C — higher, 0.129
- C25A G36A — lower, 0.0755
- C25A G36U — lower, 0.0554
- C25U A32U — higher, 0.799
- C26G A34G — higher, 0.0982
- C26G A34U — higher, 0.15
- C25U A35C — higher, 0.779
- C26A A35C — higher, 0.572
- C25A G42U — lower, 0.0765
- C25A G42A — lower, 0.0675
- C26G G39C — higher, 0.119
- C26G G39U — higher, 0.103
- C25G C46U — higher, 0.286
- C25A G38U — lower, 0.0853
- C26A G36U — lower, 0.091
- C26A G36C — higher, 0.105
- C25U C26A — lower, 0.0893
- C25A G44A — higher, 0.169
- C25A G44U — higher, 0.107
- C25A G44C — higher, 0.111
